Tests used:
[1] = test system: GST-Chymosin pro-peptide-Hirudin fusion protein
[2] = test system: poly histidine tagged chymosin pro-peptide carp growth hormone fusion protein

| Substance | cleavage of the fusion protein at pH 2.0, Western blotting (results not shown) [1] | cleavage of the fusion protein at pH 4.5, Western blotting (results not shown) [1] | cleavage of the fusion protein at pH 2, SDS-PAGE and Western blot [2] | cleavage of the fusion protein, SDS-PAGE and Western blot [2] |
| --- | --- | --- | --- | --- |
| chymosin (Sigma) | complete cleavage was also observed when the GST-Pro-Hirudin fusion which was treated at pH 2.0 and supplemented with 2 ug chymosin | apart from treatment at pH 4.5, complete cleavage was also observed | the cleavage with chymosin yielded a protein band corresponding to the expected theoretical molecular mass of the cGH (approximately 22 kDa) polypeptide | – |
| enterokinase | – | – | – | cleavage of the fusion protein was observed with enterokinase yielding a protein band corresponding to the calculated molecular mass of the Pro-cGH fusion (26 kDa) |
